The subject of this data set is MS2 coat protein. The data set is described as follows: apparent KD of MS2 coat protein; designed switch direction (-1 OFF switch, 1 ON switch): 1; higher = weaker reporter binding. An outline of the steps: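 On Illumina chips, designed RNA switches with common flanks were made by stalled E. coli RNA polymerase. Titrations with SNAP-549-labelled MS2 coat protein, doubling from 0.7 or 1.5 nM to 3 µM, were done with no input, with 200 uM small-molecule ligand, or with an oligonucleotide input. Apparent KD is the median per design over clusters, from curve fits of normalised cluster fluorescence.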

[1] abbreviates: Eterna round: R95, input ligand: FMN 200 uM.
Setting [2] is: Eterna round: R95, input ligand: microRNA oligo, concentration not stated.
[3] abbreviates: Eterna round: R95, input ligand: none.
[4] abbreviates: input ligand: microRNA oligo, concentration not stated.

As to “AUAAAACAUGAGGAUCACCCAUGUCAAAAGACAUGAGGAUAUGUGCAAAUAAAAUAAGAAACAGAAGGCAUGAAAA [salish99_ss1_r3_103] (puzzle: Same State 1)”, the “apparent KD of MS2 coat protein” value is, setting by setting: under setting [1], 98 nM; under setting [2], 105 nM; under setting [3], 222 nM.
In the same order, the values of “AUAAAACAUGAGGAUCACCCAUGUCAACAAAGUCGAGGAUAUGGGCAAAUAAAAUAAGAACCAGAAGGCUAAUAAU [salish99_ss1_r3_052] (puzzle: Same State 1)” are 246 nM, 378 nM and 375 nM.
For “AUAAAACAUGAGGAUCACCCAUGUCAACAAAGUUGAGGAUAUGGGCAAAUAAAAUAAGAACCAGAAGGCGAAUAAU [salish99_ss1_r3_033] (puzzle: Same State 1)”, in that order: 429 nM, 193 nM and 546 nM.
On to “AUAACACCGGCAGGAUAUGGGAAAGGAAGUGUACCAGAAGGGCCGGAACGGCGAUGGACAUGAGGAUCACCCAUGUCUUAGCCU [PowerStrip SSNG 1.24] (Eterna round: R96, puzzle: Same State NG 1)”, for which the “apparent KD of MS2 coat protein” value is, setting by setting: (input ligand: FMN 200 uM) 13.7 nM; under setting [4], 11.6 nM; (input ligand: none) 17.3 nM.
In the case of “AUAAGGCAAGCUUUUUUCUCGUAGUGUAAACAUGAGGAUCACCCAUGUGCCCGCUCUGGAUCUUUGGAUCGCAGAAA [Lavegeaus] (puzzle: Sensor for hsa-mir-208a)”, the “apparent KD of MS2 coat protein” value is, setting by setting: under setting [1], 26.6 nM; under setting [2], 18.2 nM; under setting [3], 25.9 nM.
In the same order, the values of “AUAAGUCCGAUGCUCGUCUCUCCGUACAAACAUGAGGAUCACCCAUGUGAUCGGGAAGUAGCCCGAUCAGUAUGGCC [Erardius] (puzzle: Sensor for hsa-mir-208a)” are 45.5 nM, 22.6 nM and 48.3 nM.
For “AUAAGUUCGAUGCUCGUCUCUCCGUACAAACAUGAGGAUCACCCAUGUGAUCGAGAAGUAGCCCGAUCAGUAUGGCC [Soainge] (puzzle: Sensor for hsa-mir-208a)”, in that order: 30.2 nM, 27 nM and 35.3 nM.
For “AUAAGUUCGAUGCUCGUCUCUCCGUACAAACAUGAGGAUCACCCAUGUGAUCGGGAAGUAGCCCAAUCAGUAUGGCC [Oranlaen] (puzzle: Sensor for hsa-mir-208a)”, in that order: 26.6 nM, 30 nM and 31.3 nM.
In the case of “AUAAGUUCGAUGCUCGUCUCUCCGUACUAACAUGAGGAUCACCCAUGUGGUCGGGAAGUAGCCCGACCAGUAUGGCC [Vearebe] (puzzle: Sensor for hsa-mir-208a)”, the “apparent KD of MS2 coat protein” value stood at 65.4 nM under setting [1], 53.3 nM under setting [2] and 82.1 nM under setting [3].
In the same order, the values of “AUAAGUUUGAUGCUCGUCUCUCCGUACAAACAUGAGGAUCACCCAUGUGGUCGGGAAGUAGCCCGGCCAGUAUGGCA [Arbitius] (puzzle: Sensor for hsa-mir-208a)” are 43.3 nM, 17.9 nM and 47.3 nM.
For “AUAAGUUUGAUGCUCGUCUCUCCGUACAAACAUGAGGAUCACCCAUGUGGUCGGGUAGUAGCCCGGCCAGUAUGGCC [Ribiesreri] (puzzle: Sensor for hsa-mir-208a)”, in that order: 40.3 nM, 20.3 nM and 46 nM.
Turning to “AUAAGUUUGAUGCUCGUCUCUCCGUACUAACAUGAGGAUCACCCAUGUGGUCGGGAAGUAGCCCGGCCAGUAUGGCC [Lequteti] (puzzle: Sensor for hsa-mir-208a)”, the “apparent KD of MS2 coat protein” value under setting [1] was determined as 19.5 nM, the “apparent KD of MS2 coat protein” value under setting [2] turned out to be 19.4 nM and the “apparent KD of MS2 coat protein” value under setting [3] was 19.3 nM.
Regarding “AUAAGUUUGAUGCUCGUCUCUUCGUACAGACAUGAGGAUCACCCAUGUAGUCGGGAAGUAGCCCGGCCAGUAUGACC [Usraisqu] (Eterna round: R96, puzzle: Sensor for hsa-mir-208a)”, the “apparent KD of MS2 coat protein” value reads like this: (input ligand: FMN 200 uM) 285 nM; under setting [4], 38.2 nM; (input ligand: none) 248 nM.
On to “AUAAGUUUGAUGCUCGUCUCUUCGUACAGACAUGAGGAUCACCCAUGUAGUCGGGAAGUAGCCCGGCCAGUAUGACC [Usraisqu] (puzzle: Sensor for hsa-mir-208a)”, for which the “apparent KD of MS2 coat protein” value was determined as 197 nM under setting [1], 40.5 nM under setting [2] and 468 nM under setting [3].
For “AUAAUACAUGAGGAUCACCCAUGUAAUUUAACUUGUAAGAUCAAGGAUAUCAGCUCGUUUAGAGCUGAGAAGGUGAUCACAUGU [SSNG3/20-A3] (Eterna round: R96, puzzle: Same State NG 3)”, the “apparent KD of MS2 coat protein” value under setting [4] was found to be 60.2 nM.
For the sequence “AUACAUGAGGAUCACCCAUGUAAUUAAUUAACUAGUAAGAUCUAGGAUAUCAGCUCGAAUAGAGCUGAGAAGGAGAUCACAUGU [SSNG3/21-A1] (Eterna round: R96, puzzle: Same State NG 3)”, the “apparent KD of MS2 coat protein” value under setting [4] was determined as 31.2 nM.
For “AUACUCAUGUAAGGAUAUGCAGCCGUUUCGGCUGCAGAAGGUACUAUAAUACAUGAGGAUCACCCAUGUCUCUAUUAUUUAGUU [JL SSNG1 1.46] (Eterna round: R96, puzzle: Same State NG 1)”, the “apparent KD of MS2 coat protein” value (input ligand: FMN 200 uM) was found to be 72.1 nM, the “apparent KD of MS2 coat protein” value under setting [4] was determined as 46.6 nM and the “apparent KD of MS2 coat protein” value (input ligand: none) turned out to be 55.1 nM.
With “AUAGUGUACGCAGGAUAUCGAUGAGGAACAUGAGGAUCACCCAUGUUGUGAGGAUCACCCAUGUAUGAGAAGGGCGACCCAUGU [Same State NG2 S1] (Eterna round: R96, puzzle: Same State NG 2)”, the “apparent KD of MS2 coat protein” value is, setting by setting: (input ligand: FMN 200 uM) 148 nM; under setting [4], 46 nM; (input ligand: none) 57.7 nM.
Turning to “AUAUAACAUGAGGAUCACCCAUGUCUCUAAAGUUGAGGAUAUGGGCAGGUUAUAUCCGAACCAGAAGGCGAAUUAU [SS1 Teenbexe 7] (puzzle: Same State 1)”, the “apparent KD of MS2 coat protein” value is 74.5 nM under setting [1], 46.3 nM under setting [2] and 102 nM under setting [3].
With “AUAUGAGGAGCAGGAUAUGCGAAGAAGAAAGAAGUAGAAGGGCUCAUGGGACGACAUGAGGAUCACCCAUGUACUACCCGAUGA [AK SSNG1-V2-8] (Eterna round: R96, puzzle: Same State NG 1)”, the “apparent KD of MS2 coat protein” value turned out to be 49.8 nM (input ligand: FMN 200 uM), 66.7 nM under setting [4] and 55.9 nM (input ligand: none).
For “AUAUUACAUGAGGAUCACCCAUGUCUCUAAAGUCGAGGAUAUGGGCAGGUUAUAUCCGAACCAGAAGGCGAAUUAU [SS1 Teenbexe 9] (puzzle: Same State 1)”, the “apparent KD of MS2 coat protein” value by setting is: under setting [1], 66.9 nM; under setting [2], 317 nM; under setting [3], 633 nM.
For “AUCCUACAUGAGGAUCACCCAUGUGACGCCUCAAUAGGAUAUGCGUGUGCCUUGGCGCAUGCAGAAGGAUUGGAGC [JL Aveso mod 4] (puzzle: Same State 1)”, in that order: 84.6 nM, 318 nM and 279 nM.
As for “AUCCUACAUGAGGAUCACCCAUGUGACGCCUCGAUAGGAUAUGCGUGUGCCUUGGCGCAUGCAGAAGGAUUGUAGC [JL Aveso mod 6] (puzzle: Same State 1)”, the “apparent KD of MS2 coat protein” value under setting [2] came to 30.5 nM.
Same read-out and setting: as for “AUCCUACAUGAGGAUCACCCAUGUGAGGCCUCAAUAGGAUAUGCGUGUGCCUUGGCGCAUGCAGAAGGAUUGAAGC [JL Aveso mod 2] (puzzle: Same State 1)”, the figure is 159 nM.
“AUCUCUGUGCCGCAGGAUAUACCAACGGCUACAUGAGGAUCACCCAUGUCAUACCGUCGAAAGUGGUAGAAGGGUGUGCACGAGC [Reteonar] (puzzle: Same State 2)”: the “apparent KD of MS2 coat protein” value turned out to be 17.7 nM under setting [1], 90.6 nM under setting [2] and 113 nM under setting [3].
With “AUGAAGAACUAAGGAUAUUGAAUACAUAUGUUUAACAUGAGGAUCACCCAUGUGGGUUGCGGUAUCGAGAAGGUAGAAUAAUAG [Mat - same State NG 2 - JL mod - D92] (Eterna round: R96, puzzle: Same State NG 2)”, the “apparent KD of MS2 coat protein” value runs as follows: (input ligand: FMN 200 uM) 95.7 nM; under setting [4], 70.3 nM; (input ligand: none) 123 nM.
Consider “AUGCAGCCACCACAGGAUAUACGUGGAUCGACAUGAGGAUCACCCAUGUAUAUCCUAAUAAUUGCGUAGAAGGGUGGUCGGCUGG [Anatxeage] (puzzle: Same State 2)”, for which, under setting [2], the “apparent KD of MS2 coat protein” value is 362 nM.
For the sequence “AUGCCAAAUCAAGGAUAUGGAGCCUUAUUGGCUCCAGAAGGUGGGACAUGAGGAUCACCCAUGUGGCAGUGGUCUAAUGACCAC [Fiskers NG1ss - 31] (Eterna round: R96, puzzle: Same State NG 1)”, the “apparent KD of MS2 coat protein” value runs as follows: (input ligand: FMN 200 uM) 59.7 nM; under setting [4], 146 nM; (input ligand: none) 200 nM.
For “AUGCCAAAUCAAGGAUAUGGAUCCUUAUUGGAUCCAGAAGGUGGGACAUGAGGAUCACCCAUGUGGCAGUGGUCUAAUGACCAC [Fiskers NG1ss - 30] (Eterna round: R96, puzzle: Same State NG 1)”, in that order: 61 nM, 185 nM and 281 nM.
“AUUAAACAUGAGGAUCACCCAUGUAUUAUUAUGGGAGGAUAUGCGAAUUUAAUUAAUUAAGCAGAAGGCCUAAUUA [Mat - Same State 1 - D102] (puzzle: Same State 1)”: the “apparent KD of MS2 coat protein” value runs as follows: under setting [1], 18.7 nM; under setting [2], 98.3 nM; under setting [3], 141 nM.

For the origin of these results see the supplement of paper PMC9170038.
